Assay in all cases: two-hybrid; yeast strains L40 or PJ69-4A; β-galactosidase quantitative liquid assays, fold activation with respect to the empty vector, at least four independent protein extracts
In test [1] the target is Cno NH, LexA bait fusion (Drosophila).
The target in test [2] is Cno-MP, LexA bait fusion (Drosophila) (UniProt Q24279).
Test [3] has as its target DSH-FLN, LexA bait fusion (Drosophila) (UniProt P51140).
Chain of UniProt P51140 (P51140 whole entry, the tested form may be a part): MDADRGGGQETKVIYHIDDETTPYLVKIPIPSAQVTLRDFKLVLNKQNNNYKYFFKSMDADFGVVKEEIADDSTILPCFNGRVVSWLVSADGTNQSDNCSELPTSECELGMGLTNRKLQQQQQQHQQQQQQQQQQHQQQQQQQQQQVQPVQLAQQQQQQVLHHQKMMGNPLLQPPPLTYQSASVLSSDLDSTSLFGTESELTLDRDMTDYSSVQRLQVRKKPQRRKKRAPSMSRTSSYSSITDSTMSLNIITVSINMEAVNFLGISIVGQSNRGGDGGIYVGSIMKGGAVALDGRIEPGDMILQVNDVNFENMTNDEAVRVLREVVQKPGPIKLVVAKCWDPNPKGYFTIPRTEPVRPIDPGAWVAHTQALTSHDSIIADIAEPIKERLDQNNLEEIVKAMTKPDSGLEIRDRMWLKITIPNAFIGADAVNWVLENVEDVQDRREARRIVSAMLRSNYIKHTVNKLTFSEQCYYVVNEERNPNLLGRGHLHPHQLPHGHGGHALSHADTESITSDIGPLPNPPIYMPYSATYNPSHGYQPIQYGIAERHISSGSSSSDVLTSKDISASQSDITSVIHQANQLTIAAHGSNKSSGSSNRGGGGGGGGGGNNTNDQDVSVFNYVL

Chain of UniProt Q24279 (Q24279 entry or part of it): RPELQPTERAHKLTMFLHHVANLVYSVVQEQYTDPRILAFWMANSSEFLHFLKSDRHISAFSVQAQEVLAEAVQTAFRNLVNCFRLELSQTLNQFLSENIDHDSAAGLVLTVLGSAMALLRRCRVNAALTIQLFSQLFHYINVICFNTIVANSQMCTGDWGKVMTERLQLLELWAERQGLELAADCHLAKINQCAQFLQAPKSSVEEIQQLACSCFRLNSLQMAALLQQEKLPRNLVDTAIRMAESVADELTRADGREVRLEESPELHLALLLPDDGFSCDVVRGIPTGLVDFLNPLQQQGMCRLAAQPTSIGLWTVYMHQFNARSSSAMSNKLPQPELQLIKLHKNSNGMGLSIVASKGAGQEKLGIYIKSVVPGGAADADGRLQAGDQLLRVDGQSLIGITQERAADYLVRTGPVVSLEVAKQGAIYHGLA

“Notch-ICN1, prey fusion (domain or fragment)”: the fold activation (β-galactosidase, against the empty vector) (fold activation) in test [1] and in test [2] was 40 throughout.

For the substance “Notch-ICN2, prey fusion (domain or fragment)”, the fold activation (β-galactosidase, against the empty vector) (fold activation) was determined as 3 in test [3], 20 in test [1] and 20 in test [2].

Values taken from PMC1762375.
